Measurements as given in US20180112193A1, “CSF1 THERAPEUTICS” (University Court Of The University Of Edinburgh, priority 2013, published 2018).

Tests used:
male C57BI6 mice [1] = assay: Chronic liver injury (carbon tetrachloride) plus 2/3 partial hepatectomy in mice; assay type: in vivo, mouse; conditions: for mouse body weight: p<0.001 at day 4
Experimental: (§1) Forty-eight male C57BI6 mice aged 10-12 weeks underwent either 2/3 partial hepatectomy, paracetamol intoxication or chronic liver injury plus 2/3 partial hepatectomy. 2/3 partial hepatectomy was performed by ligating the left lobe and left and right median lobes. Paracetamol intoxication was performed by intraperitoneal administration of 350 mg/kg paracetamol dissolved in phosphate buffered saline (PBS). Chronic liver injury plus 2/3 partial hepatectomy was performed by eight weeks intraperitoneal carbon tetrachloride administration 1 mcl/g twice weekly dissolved in olive oil followed by ⅔ partial hepatectomy as described above. […] Control mice (n=8 per injury model) received subcutaneous PBS of appropriate volume. All mice were culled on day 4 following injury (partial hepatectomy or paracetamol intoxication).
(§2) Following a midline laparotomy the liver was excised and weighed. Liver weight to body weight ratio was calculated and expressed as a percentage. Livers were fixed in 4% formalin overnight then transferred to 70% ethanol. Livers were then embedded in paraffin blocks and 4 μm sections cut. Immunohistochemistry for Ki67 (a marker of cellular proliferation expressed throughout the cell cycle) was performed following heat mediated antigen retrieval in Tris/EDTA solution at pH9. Hepatocyte proliferation was quantified by counting ki67 positive hepatocytes in 20 high powered fields (400×) per animal and the mean calculated.
The effects of Fc-CSF1 on liver regeneration in murine models of acute liver injury (partial hepatectomy; paracetamol intoxication) and acute-on-chronic liver injury (chronic liver injury plus partial hepatectomy) were studieD. […] Control mice (n=8 per injury model) received subcutaneous PBS of appropriate volume.
CSF1-Fc or control was administered to mice immediately following 2/3 partial hepatectomy on a background of 8 weeks carbon tetrachloride induced chronic liver injury (1 mcl/g carbon tetrachloride/mouse 2×/week).

male C57BI6 mice [2] = assay: 2/3 partial hepatectomy in mice; assay type: in vivo, mouse
Experimental: as §1, with “All mice were culled on day 4 following injury (partial hepatectomy or paracetamol intoxication).” left out
as §2, with “calculated. […]” for “calculated.”

mouse bone marrow cells = assay: Proliferation of mouse bone marrow cells; assay type: cell-based; conditions: data not shown
Experimental: Stable Ba/F3 cells expressing porcine CSF-1R were maintained in culture with complete RPMI supplemented with either 10^4 Units/ml rh-CSF-1 or 10% IL-3 conditioned medium prior to MTT assay. 2×10^4 cells/well (Ba/F3 cells and Ba/F3 transfectants), or 5×10^4 cells/well (pig BMM) of a 96 well plate were plated in triplicate or quadruplicate and appropriate treatment (serial dilutions of rh-CSF-1 or porcine Fc CSF-1 were added to make a total volume of 100 μl per well. Cells were incubated for 48 hours at 37° C. with 5% CO2. For Ba/F3 cells, 10 μl of MTT (Sigma Aldrich M5655) stock solution (5 mg/ml) was added directly to each well to achieve a final concentration of 0.5 mg/ml and incubated at 37° C. for 3 hours prior to solubilisation overnight. For adherent mouse BMM cells, culture medium was replaced with 50 μl of 1 mg/ml MTT solution and incubated for 1 hour at 37° C. MTT solution was removed and tetrazolium salt solubilised with 100 μl of solubilisation agent (0.1M HCL, 10% Triton x-100 and isopropanol) followed by incubation at 37° C. with 5% CO2 for 10 minutes. Plates were read at 570 nm with reference wavelength of 405 nm.
Mice were injected with Fc-CSF-1 subcutaneously on each of 4 days and sacrificed on the 5th day. The mice were csf1r-EGFP (MacGreen) mice on the C57BI/6 background. […]

C57BI6 male mice = assay: Hepatic phagocytic ability after paracetamol intoxication (gene analysis, bead clearance assay, ex vivo imaging); assay type: in vivo, mouse
Experimental: C57BI6 male mice (8-10 weeks) underwent either partial hepatectomy (⅔ resection) or paracetamol intoxication (350 mg/kg intraperitoneal following overnight fast). CSF1-Fc was administered as previous (0.75 mg/kg). Gene analysis was performed using Qiagen Quantitect Primers (MSR1 and MARCO) and related to GAPDH level for each sample. […] 0.1 mls of 5000 IU/ml heparin solution was infused to prevent blockage of the catheter. 100 μl of red fluorescent bead solution (1:5 Latex beads 1.0 μm, fluorescent red, SIGMA-ALDRICH®) was infused through the cannula (1:2 solution for assay following paracetamol injury). 20 mcl of blood was removed from the cannula every two minutes starting from 1 minute post injection for 15 minutes. Blood was immediately fixed with 300 μl FACS-Lysing solution (BD Biosceinces). After 15 minutes mice were perfused with 15 mls 0.9% saline through the IVC cannula after dividing the portal vein for outflow. Organs were then removed (Liver, spleen, lungs, kidney, brain) and imaged with a Kodak In-Vivo Multispectral FX image station (Excitation: 550 nm; Emission: 600 nm; Exposure 1 sec; f-stop 2.8). Subsequently blood samples were analysed using a LSR-Fortessa™ flow cytometer (BD Biosciences) with fluorescent beads detected on the blue channel (B695/40) by a 1 minute sample collection on low flow rate setting.

[3] = chronic liver injury with 2/3 partial hepatectomy, vs control
[4] = administered immediately following 2/3 partial hepatectomy, vs control
[5] = day 2 following partial hepatectomy, vs controls
[6] = day 2 following paracetamol intoxication

B1: Fc-CSF-1: active fragment of porcine CSF-1 (SEQ ID NO:1) linked to the hinge-CH3 region of porcine IgG1a (SEQ ID NO:2) (protein, listed as Sus scrofa)
chain: SENCSHMIGDGHLKVLQQLIDSQMETSCQIAFEFVDQEQLTDPVCYLKKAFLQVQDILDETMRFRDNTPNANVIVQLQELSLRLNSCFTKDYEEQDKACVRTFYETPLQLLEKIKNVFNETKNLLKKDWNIFSKNCNNSFAKCSSQHERQPEGRGTKTKPPCPICPGCEVAGPSVFIFPPKPKDTLMISQTPEVTCVVVDVSKEHAEVQFSWYVDGVEVHTAETRPKEEQFNSTYRVVSVLPIQHQDWLKGKEFKCKVNNVDLPAPITRTISKAIGQSREPQVYTLPPPAEELSRSKVTVTCLVIGFYPPDIHVEWKSNGQPEPEGNYRTTPPQQDVDGTFFLYSKLAVDKARWDHGETFECAVMHEALHNHYTQKSISKTQGK
fibrosis assessed by Sirius red quantification (male C57BI6 mice [1]; [3]): trend to reduction
liver weight to body weight ratio (male C57BI6 mice [1]; [3]): increased significantly
number of proliferating hepatocytes (male C57BI6 mice [1]; [3]): increased significantly
mouse body weight (male C57BI6 mice [1]; [3]): significant increase in mouse weight
mouse body weight (male C57BI6 mice [1]; chronic liver injury with 2/3 partial hepatectomy, vs control, listed as CSF1-Fc): significant increase in body weight
survival (male C57BI6 mice [1]; chronic liver injury with 2/3 partial hepatectomy, vs control, p=0.08): trend to improved survival
serum ALT (male C57BI6 mice [1]; day 4 post hepatectomy): significant reduction
serum bilirubin (male C57BI6 mice [1]; day 4 post hepatectomy): significant reduction
hepatocyte proliferation (male C57BI6 mice [2]; [4]): increasing
liver weight to body weight ratio (male C57BI6 mice [2]; [4]): significantly increasing
gene expression of oncostatin M (OSM) (male C57BI6 mice [2]; [5]): significantly enhanced
gene expression of pro-regenerative cytokine 116 (male C57BI6 mice [2]; [5]): significantly enhanced
urokinase receptor (UR) expression (male C57BI6 mice [2]; following partial hepatectomy, vs controls): significantly elevated
biological activity (proliferation) compared with recombinant pig CSF-1 (mouse bone marrow cells): no difference in biological activity
MARCO gene expression, whole liver (C57BI6 male mice; [6]): upregulation
MSR1 (macrophage scavenger receptor 1) gene expression, whole liver (C57BI6 male mice; [6]): upregulation
clearance of latex microbeads from the circulation (C57BI6 male mice; paracetamol model): did not notice enhanced clearance
hepatic fluorescence, ex vivo imaging (C57BI6 male mice; paracetamol model): significant increase
